# Measured values reported in article PMC10354078, “Conformational restriction shapes the inhibition of a multidrug efflux adaptor protein” (Nature Communications, 2023).
# Where a chain is given by its changes, count along the chain named.
# B1: AcrA^L (lipidated AcrA) (natural protein)
# chain: CDDKQAQQGGQQMPAVGVVTVKTEPLQITTELPGRTSAYRIAEVRPQVSGIILKRNFKEGSDIEAGVSLYQIDPATYQATYDSAKGDLAKAQAAANIAQLTVNRYQKLLGTQYISKQEYDQALADAQQANAAVTAAKAAVETARINLAYTKVTSPISGRIGKSNVTEGALVQNGQATALATVQQLDPIYVDVTQSSNDFLRLKQELANGTLKQENGKAKVSLITSDGIKFPQDGTLEFSDVTVDQTTGSITLRAIFPNPDHTLLPGMFVRARLEEGLNPNAILVPQQGVTRTPRGDATVLVVGADDKVETRPIVASQAIGDKWLVTEGLKAGDRVVISGLQKVRPGVQVKAQEVTADNNQQAASGAQPEQSKS
# modifications: lipidated at Cys25 (after cleavage of signal peptide 1-24)
# notes: AcrA, periplasmic adaptor protein of E. coli; full length AcrA cloned from genomic DNA; signal peptide residues 1-24 is cleaved, the protein begins at lipidated Cys25; Cloned into pET28a with NcoI and XhoI; source: E. coli C43(DE3) ΔacrAB, solubilised from membranes with 1% DDM, purified (HiTrap, SEC) in 0.03% DDM
# B2: AcrA^S (soluble AcrA lacking signal peptide and lipidation) (domain or fragment)
# chain: B1 chain with C1M
# notes: AcrA of E. coli without signal peptide residues 1-24; Cys25 replaced by a starting methionine (Met25); not lipidated; pET28a construct; source: E. coli C43(DE3) ΔacrAB, cytosolic fraction, purified (HiTrap, SEC)
# How the values were obtained:
# [1] = target: the molecule itself; test: native MS; pH 7.4, 100 mM ammonium acetate; AcrA^L with 0.03% DDM
# [2] = target: the molecule itself; test: native MS; pH 6.0, 100 mM ammonium acetate; AcrA^L with 0.03% DDM (2x CMC); Synapt G2-Si or Q-Exactive UHMR
# [3] = target: T1, AcrB in SMALP (styrene maleic acid lipid particle) nanodiscs (E. coli, UniProt P31224 1-1049); test: native gel or EMSA; SMA-PAGE (native PAGE for SMALPs): AcrA constructs mixed with AcrB in SMALP nanodiscs; Novex Tris-Glycine 4-20% gels, 25 mM Tris pH 8.8, 192 mM glycine, 150 V, 4 °C, Coomassie stain; conditions: both partners purified
# T1 construct: AcrB, inner membrane RND transporter of the E. coli AcrAB-TolC pump; pET15b plasmid; embedded in native lipid SMALP nanodiscs; also called trimeric AcrB SMALPs; source: E. coli C43(DE3) ΔacrAB, extracted from membranes with 2.5% SMA 2000 into native nanodiscs, purified (nickel NTA)
# T1 sequence: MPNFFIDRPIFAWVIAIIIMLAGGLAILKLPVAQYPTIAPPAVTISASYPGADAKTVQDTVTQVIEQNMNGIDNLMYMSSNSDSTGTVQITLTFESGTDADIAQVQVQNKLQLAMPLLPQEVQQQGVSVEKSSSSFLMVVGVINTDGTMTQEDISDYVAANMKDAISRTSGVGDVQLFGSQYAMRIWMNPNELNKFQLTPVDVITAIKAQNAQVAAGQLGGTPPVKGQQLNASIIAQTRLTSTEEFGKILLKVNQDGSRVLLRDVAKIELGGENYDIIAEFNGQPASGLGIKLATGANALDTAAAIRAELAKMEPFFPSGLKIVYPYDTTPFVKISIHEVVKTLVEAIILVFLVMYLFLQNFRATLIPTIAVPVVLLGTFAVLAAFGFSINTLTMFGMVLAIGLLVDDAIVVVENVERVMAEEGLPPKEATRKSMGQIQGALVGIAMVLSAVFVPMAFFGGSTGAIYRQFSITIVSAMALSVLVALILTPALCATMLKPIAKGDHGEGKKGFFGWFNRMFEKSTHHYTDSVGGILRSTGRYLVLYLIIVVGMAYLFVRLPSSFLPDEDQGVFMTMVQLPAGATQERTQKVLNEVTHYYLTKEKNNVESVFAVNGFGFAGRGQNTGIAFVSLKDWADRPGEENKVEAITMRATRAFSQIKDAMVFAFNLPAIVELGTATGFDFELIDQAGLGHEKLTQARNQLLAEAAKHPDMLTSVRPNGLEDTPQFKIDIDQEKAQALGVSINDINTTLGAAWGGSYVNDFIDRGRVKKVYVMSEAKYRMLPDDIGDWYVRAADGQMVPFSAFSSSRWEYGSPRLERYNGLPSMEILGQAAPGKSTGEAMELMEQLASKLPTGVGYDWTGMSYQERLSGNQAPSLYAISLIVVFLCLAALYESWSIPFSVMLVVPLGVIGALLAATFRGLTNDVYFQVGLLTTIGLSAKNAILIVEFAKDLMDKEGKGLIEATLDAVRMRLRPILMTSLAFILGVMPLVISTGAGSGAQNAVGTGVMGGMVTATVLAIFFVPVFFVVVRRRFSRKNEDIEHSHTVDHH
Binder,stoichiometry N [1],stoichiometry N [2],stoichiometry N [3]
B1,≤ 5,2,
B2,,,1
